From patent US20030108554A1 (published 2003)
Residue numbers refer to the chain shown, from its start.

Tests used:
Test in all cases: yeast two-hybrid
GIP130a = biological target: T1, GIP130a (human, UniProt Q4L180 1-1135)
T1 construct: Full length; tested as GAL4 domain fusion in yeast two-hybrid
T1 sequence: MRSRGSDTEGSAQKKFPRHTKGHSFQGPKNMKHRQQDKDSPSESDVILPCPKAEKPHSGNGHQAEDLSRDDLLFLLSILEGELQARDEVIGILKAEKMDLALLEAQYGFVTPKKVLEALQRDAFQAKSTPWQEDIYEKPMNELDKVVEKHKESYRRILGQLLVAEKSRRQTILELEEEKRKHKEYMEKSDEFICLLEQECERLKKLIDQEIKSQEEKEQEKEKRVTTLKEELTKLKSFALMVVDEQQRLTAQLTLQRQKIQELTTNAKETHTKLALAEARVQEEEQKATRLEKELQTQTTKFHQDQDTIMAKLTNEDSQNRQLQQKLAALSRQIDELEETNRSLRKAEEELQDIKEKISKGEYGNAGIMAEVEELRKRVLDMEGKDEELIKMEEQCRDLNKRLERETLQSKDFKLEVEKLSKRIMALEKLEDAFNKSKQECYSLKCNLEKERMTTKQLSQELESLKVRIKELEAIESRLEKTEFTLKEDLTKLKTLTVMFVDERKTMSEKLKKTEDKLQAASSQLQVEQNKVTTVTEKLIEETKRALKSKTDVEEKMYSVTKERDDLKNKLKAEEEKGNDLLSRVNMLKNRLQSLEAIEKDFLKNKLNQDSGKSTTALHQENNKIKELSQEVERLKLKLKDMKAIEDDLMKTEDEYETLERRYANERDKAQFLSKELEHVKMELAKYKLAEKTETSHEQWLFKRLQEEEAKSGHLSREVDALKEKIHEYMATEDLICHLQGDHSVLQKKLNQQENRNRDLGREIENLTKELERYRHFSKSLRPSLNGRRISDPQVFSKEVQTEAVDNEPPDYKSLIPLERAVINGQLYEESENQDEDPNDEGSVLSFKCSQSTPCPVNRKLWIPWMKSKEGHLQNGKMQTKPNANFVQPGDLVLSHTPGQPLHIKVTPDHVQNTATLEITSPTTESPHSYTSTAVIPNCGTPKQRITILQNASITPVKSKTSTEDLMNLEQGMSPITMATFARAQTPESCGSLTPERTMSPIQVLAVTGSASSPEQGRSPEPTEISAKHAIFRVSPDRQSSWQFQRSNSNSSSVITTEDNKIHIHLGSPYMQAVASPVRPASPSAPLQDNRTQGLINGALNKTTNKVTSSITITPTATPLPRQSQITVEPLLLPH

GIP130b = biological target: T2, GIP130b (human, UniProt Q4L180 1-1128)
T2 construct: Full length; tested as GAL4 domain fusion in yeast two-hybrid
T2 sequence: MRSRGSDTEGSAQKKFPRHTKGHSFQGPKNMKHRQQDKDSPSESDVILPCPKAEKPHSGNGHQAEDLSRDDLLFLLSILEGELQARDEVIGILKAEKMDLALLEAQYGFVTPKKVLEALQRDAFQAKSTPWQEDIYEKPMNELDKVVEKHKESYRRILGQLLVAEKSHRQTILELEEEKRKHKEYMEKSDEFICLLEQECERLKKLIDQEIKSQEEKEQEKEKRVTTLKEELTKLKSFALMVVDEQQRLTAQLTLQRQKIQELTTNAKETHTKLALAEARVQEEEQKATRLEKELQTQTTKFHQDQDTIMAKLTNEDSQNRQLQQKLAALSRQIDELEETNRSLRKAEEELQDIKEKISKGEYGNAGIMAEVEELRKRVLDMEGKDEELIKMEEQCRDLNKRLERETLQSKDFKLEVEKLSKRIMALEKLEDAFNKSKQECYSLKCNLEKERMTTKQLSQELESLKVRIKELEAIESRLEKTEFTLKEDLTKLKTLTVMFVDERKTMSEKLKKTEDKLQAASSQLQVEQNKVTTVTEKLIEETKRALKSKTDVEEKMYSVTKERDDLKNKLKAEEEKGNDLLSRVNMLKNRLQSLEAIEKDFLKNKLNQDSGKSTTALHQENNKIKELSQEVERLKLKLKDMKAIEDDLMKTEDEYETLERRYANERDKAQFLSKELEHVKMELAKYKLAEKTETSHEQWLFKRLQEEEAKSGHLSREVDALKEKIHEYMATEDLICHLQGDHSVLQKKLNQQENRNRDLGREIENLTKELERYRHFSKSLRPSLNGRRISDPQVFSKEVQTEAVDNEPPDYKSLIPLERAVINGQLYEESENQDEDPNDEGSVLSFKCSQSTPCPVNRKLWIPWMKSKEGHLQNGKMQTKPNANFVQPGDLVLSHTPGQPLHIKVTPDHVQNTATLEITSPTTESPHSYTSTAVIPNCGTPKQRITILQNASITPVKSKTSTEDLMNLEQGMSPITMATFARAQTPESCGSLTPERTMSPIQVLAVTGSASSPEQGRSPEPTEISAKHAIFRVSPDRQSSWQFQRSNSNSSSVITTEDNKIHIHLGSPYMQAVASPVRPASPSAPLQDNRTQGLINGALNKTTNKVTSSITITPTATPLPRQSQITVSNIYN

yeast two-hybrid = biological target: the molecule itself
GIP130c = biological target: T3, GIP130c (human, UniProt Q4L180 1-1128)
T3 construct: Full length; tested as GAL4 domain fusion in yeast two-hybrid
T3 sequence: T2 sequence with H168R

Measured: binding result

B1: GIP90 (GPBP interacting protein 90 kDa) (other)
chain: MRSRGSDTEGSAQKKFPRHTKGHSFQGPKNMKHRQQDKDSPSESDVILPCPKAEKPHSGNGHQAEDLSRDDLLFLLSILEGELQARDEVIGILKAEKMDLALLEAQYGFVTPKKVLEALQRDAFQAKSTPWQEDIYEKPMNELDKVVEKHKESYRRILGQLLVAEKSRRQTILELEEEKRKHKEYMEKSDEFICLLEQECERLKKLIDQEIKSQEEKEQEKEKRVTTLKEELTKLKSFALMVVDEQQRLTAQLTLQRQKIQELTTNAKETHTKLALAEARVQEEEQKATRLEKELQTQTTKFHQDQDTIMAKLTNEDSQNRQLQQKLAALSRQIDELEETNRSLRKAEEELQDIKEKISKGEYGNAGIMAEVEELRKRVLDMEGKDEELIKMEEQCRDLNKRLERETLQSKDFKLEVEKLSKRIMALEKLEDAFNKSKQECYSLKCNLEKERMTTKQLSQELESLKVRIKELEAIESRLEKTEFTLKEDLTKLKTLTVMFVDERKTMSEKLKKTEDKLQAASSQLQVEQNKVTTVTEKLIEETKRALKSKTDVEEKMYSVTKERDDLKNKLKAEEEKGNDLLSRVNMLKNRLQSLEAIEKDFLKNKLNQDSGKSTTALHQENNKIKELSQEVERLKLKLKDMKAIEDDLMKTEDEYETLERRYANERDKAQFLSKELEHVKMELAKYKLAEKTETSHEQWLFKRLQEEEAKSGHLSREVDALKEKIHEYMATEDLICHLQGDHSVLQKKTKSTRKQEQRFRKRD
notes: Full length; tested as GAL4 domain fusion in yeast two-hybrid/three-hybrid; fusion parts are not written as pieces
binds: all assays above
